Columns and labels:
[1] = system: SVEC4-10 cells; test: Endothelial cell motility in blindwell chambers (SVEC4-10); assay type: cell-based, mouse; conditions: for cell-motility-stimulating activity of purified Sema3E isoform fractions: fractions from heparin-sepharose and size-exclusion chromatography of COS-7 medium
Experimental: 200.000 endothelial mouse lymph nodes SVEC4-10 cells were suspended either in serum free DME/F12 (1:1) medium containing 25 mM Hepes pH 7.4, 0.1% BSA and D-glucose, or conditioned medium collected from cells expressing different Sema3E constructs and were loaded in the top compartments of blindwell chambers. The cells were left to adhere to fibronectin-coated polycarbonate filters within 3 h after seeding, and allowed to migrate through the pores of the filters in the next 3-6 h. Conditioned media from Sema3E or mock transfected 168FARN cells and COS-7 cells transfected with a pcDNA3.1: LacZ were used to examine the effect of the presence of Sema3E in the medium on endothelial cell motility. Migration of SVEC4-10 cells was evaluated after 5 h exposure to the conditioned media with or without Sema3E.
The full-length Sema3E expressed in cells can give a raise to several naturally occurring isoforms of Sema3E, such as for example the truncated p61-Sema3E, a full-length p87-Sema3E, or a dimer p87:p87-Sema3E. The effect of different isoforms of Sema3E on cell motility was studied by using the isoforms purified from conditioned medium collected from tranfected COS-7 cells in the assay described above. The proteins were purified by heparin-sepharose affinity chromatography with following size-exclusion chromatography. All fractions collected from the size-exclusion column were tested for the presence of cell-motility-stimulating activity.

[2] = system: PC12E2 cells; test: Neurite outgrowth from PC12E2 cells; assay type: cell-based; conditions: for stimulatory effect on neurite outgrowth: chromatographic fractions of COS-7 conditioned medium, 48 h, compared to negative control (conditioned medium from COS-7 cells without Sema3E proteins)
Experimental: Conditioned medium from COS-7 cells stably transfected with full-length Sema3E was collected and fractionated using heparin-sepharose affinity chromatography and consequent size-exlusion fractionation. Fractions containing different isoforms of Sema3E were collected and tested for neuritogenic activity.
PC12E2 cells were plated on poly-L-lysine coated 48-well plates (Costar) (5,000 cells/well) and grown overnight in DME/F12 medium supplemented with 5% foetal calf serum (FCS) and 10% horse serum (HS) at 37 C°, 5% CO2. The chromatographic fractions were dialyzed against DME/F12 medium without serum, protein concentration was adjusted to 10 μg/ml, and diluted 1:1 in conditioned medium collected from non-transfected COS-7 cells grown for 72 h in serum free DME/F12 medium. PC12E2 cells were incubated with samples of different Sema3E fractions for 48 h, afterwards cells were fixed with 11% glutaraldehyde in PBS, washed in PBS and stained with 0.1% crystal violet in 20% methanol, and neurite outgrowth was quantified. […] A neurite outgrowth index was calculated in each experiment dividing the percentage of neurite outgrowth index in the test sample by the percentage of neurite outgrowth index in response to conditioned medium from COS7 cells without Sema3E proteins (negative control). Other controls were: nerve growth factor (NGF), tested at concentration 500 ng/ml (positive control), and non-fractionated conditioned medium from COS-7 cells expressing full-length Sema3E, tested at concentration 50 μg total protein/mi. Activity was defined as the index divided by 2.
The truncated p61 isoform of Sema3E was further expressed as recombinant protein ([…]) in Pichia pastoris as described above, purified using Ni2+ affinity chromatography and tested in a neurite outgrowth assay described above. […] NGF at (positive control, 125 ng/ml) stimulated neurite outgrowth up to 40%.

[3] = system: 168FARN mouse tumor cells colonising the lungs; test: Experimental lung metastasis assay with transfected 168FARN cells; assay type: in vivo, Balb/c mice
Experimental: Non-metastatic 168FARN mouse tumor cells were stably transfected with the pcDNA3.1(−)/zeo^R vector encoding a wild-type Sema3E, or mock transfected with the empty vector as described above. Two clones expressing secreted Sema3E, 168FARN: 2s and 168FARN: 14, and a mock transfected clone, 168FARN: 16 were tested for their ability to colonise the lungs in the experimental metastasis assay as described previously (Christensen et al, 1998, Cancer Res 58:1238-44). Briefly, 10^5 cells were injected in the tail vein of female Balb/c mice (age 8-9 weeks). 4 weeks later the lungs were examined for tumor growth.
168FARN cells were stably transfected with constructs encoding 1-560 amino acid fragment of the sequence Sema3E, which corresponds to 61 kDa fragment of Sema3E (p61-Sema3E), a full-length Sema3E mutated on KRRFRR site (Sema3E(−) (+)myc), and a wild-type full-length Sema3E as described above, and stable clones expressing the proteins were injected to mice to induce the experimental metastasis. 10^5 cells of each clone expressing different constructs were injected into the tail vein of female Balb/c mice. After 24 days the lungs were excised, weighted and scored for the presence of visible lung tumors. The p61-Sema3E clones (two groups: clone#1, n=8; clone#5, n=6) were highly aggressive compared to a control group (injected with the cells expressing a secreted alkaline phosphatase (AP)), showing an increase in overall lung weight at about 300%.

[4] = system: SVEC4-10 endothelial cells; test: 3D co-culture of SVEC4-10 and 168FARN aggregates in matrigel; assay type: cell-based, mouse; conditions: co-culture with transfected 168FARN aggregates 3-5 mm apart, 7 days
Experimental: 100,000 cells in 10 μl were aggregated by incubation in a hanging drop at 37° C. for 4 h. The aggregates were moved onto a layer of solidified ECM gel (matrigel) so, that SVEC4-10 aggregates were placed 3-5 mm apart from the aggregates of 168FARN:AP (clone#3, control clone expressing AP), or 168FARN:p61-Sema3E (clone#5, expressing the non-tagged p61-sema3E isoform), or 168FARN:AP-p61-Sema3E (done#5, expressing the AP-tagged p61 isoform). Another layer of matrigel was added on the top of the aggregates. After 7 days of incubation aggregates were examined for invasive growth.

With heparin [reference compound] the “response of SVEC4-10 cells to p61-Sema3E-MH in presence of soluble heparin” value ([1]; heparin in the medium at 1-10 μg/ml) was “decreased the response of SVEC4-10 cells to the p61 -Sema3E-MH to the basal level”.

With “NGF: nerve growth factor, positive control [reference compound]” the “stimulation of neurite outgrowth” value ([2]; positive control, 125 ng/ml) was “up to 40%”.

B1: Sema3E: wild-type full-length mouse Sema3E (SEQ ID NO: 1) expressed in 168FARN cells (protein, listed as Mus sp.)
chain: MAPAGHILTLLLWGHLLELWTPGHSANPSYPRLRLSHKELLELNRTSIFQSPLGFLDLHTMLLDEYQERLFVGGRDLVYSLNLERVSDGYREIYWPSTAVKVEECIMKGKDANECANYIRVLHHYNRTHLLTCATGAFDPHCAFIRVGHHSEEPLFHLESHRSERGRGRCPFDPNSSFVSTLVGNELFAGLYSDYWGRDSAIFRSMGKLGHIRTEHDDERLLKEPKFVGSYMIPDNEDRDDNKMYFFFTEKALEAENNAHTIYTRVGRLCVNDMGGQRILVNKWSTFLKARLVCSVPGMNGIDTYFDELEDVFLLPTRDPKNPVIFGLFNTTSNIFRGHAVCVYHMSSIREAFNGPYAHKEGPEYHWSLYEGKVPYPRPGSCASKVNGGKYGTTKDYPDDAIRFARIDPLMYQPIKPVHKKPILVKTDGKYNLRQLAVDRVEAEDGQYDVLFIGTDTGIVLKVITIYNQETEWMEEVILEELQIFKDPAPIISMEISSKRQQLYIGSASAVAQVRFHHCDMYGSACADCCLARDPYCAWDGISCSRYYPTGAHAKRRFRRQDVRHGNAAQQCFGQQFVGDALDRTEERLAYGIESNSTLLECTPRSLQAKVIWFYQKGRDVRKEEVKTDDRVVKMDLGLLFLRVRKSDAGTYFCQTVEHNFVHTVRKITLEVVEEHKVEGMFHKDHEEERHHKMPCPPLSGMSQGTKPWYKEFLQLIGYSNFQRVEEYCEKVWCTDKKRKKLKMSPSKWKYANPQEKRLRSKAEHFRLPRHTLLS
B1 was tested, and the “increase of overall weight of the lungs” value ([3]; 10^5 168FARN cells expressing wild-type Sema3E, tail vein, 4 weeks) was 300% and the “lung colonisation / visible lung tumors” value ([3]; 168FARN clones 2s and 14 expressing secreted Sema3E, 4 weeks, versus parental or mock transfected cells) was “colonized the lungs and produced large tumors”.

B2: p61-Sema3E: 1-560 amino acid fragment of Sema3E, 61 kDa truncated isoform from furin cleavage (SEQ ID NO: 3) (protein, listed as Mus sp.)
chain: MAPAGHILTLLLWGHLLELWTPGHSANPSYPRLRLSHKELLELNRTSIFQSPLGFLDLHTMLLDEYQERLFVGGRDLVYSLNLERVSDGYREIYWPSTAVKVEECIMKGKDANECANYIRVLHHYNRTHLLTCATGAFDPHCAFIRVGHHSEEPLFHLESHRSERGRGRCPFDPNSSFVSTLVGNELFAGLYSDYWGRDSAIFRSMGKLGHIRTEHDDERLLKEPKFVGSYMIPDNEDRDDNKMYFFFTEKALEAENNAHTIYTRVGRLCVNDMGGQRILVNKWSTFLKARLVCSVPGMNGIDTYFDELEDVFLLPTRDPKNPVIFGLFNTTSNIFRGHAVCVYHMSSIREAFNGPYAHKEGPEYHWSLYEGKVPYPRPGSCASKVNGGKYGTTKDYPDDAIRFARIDPLMYQPIKPVHKKPILVKTDGKYNLRQLAVDRVEAEDGQYDVLFIGTDTGIVLKVITIYNQETEWMEEVILEELQIFKDPAPIISMEISSKRQQLYIGSASAVAQVRFHHCDMYGSACADCCLARDPYCAWDGISCSRYYPTGAHAKRRFRR
With B2 the “stimulatory effect on neurite outgrowth” value [2] was 24-39%, the “cell-motility-stimulating activity of purified Sema3E isoform fractions” value [1] was “attractive for SVEC4-10 cells” and the “increase in overall lung weight” value ([3]; 168FARN clones #1 and #5, 10^5 cells tail vein, 24 days, versus control cells expressing secreted alkaline phosphatase (AP)) was “about 300%”. For the same molecule, the “lung weight versus groups with mutated Sema3E(−)(+)myc” value ([3]; 168FARN clones, 24 days, compared to Sema3E(−)(+)myc clones #14 and #6) was “double increase” and the “invasive growth of SVEC4-10 endothelial cells” value [4] was “invasion of SVEC4-10 endothelial cells was observed”.

B3: p87:p87-Sema3E dimer: dimer of full-length p87-Sema3E purified from medium of transfected COS-7 cells (protein, UniProt O15041 1-775, looked up)
chain: MASAGHIITLLLWGYLLELWTGGHTADTTHPRLRLSHKELLNLNRTSIFHSPFGFLDLHTMLLDEYQERLFVGGRDLVYSLSLERISDGYKEIHWPSTALKMEECIMKGKDAGECANYVRVLHHYNRTHLLTCGTGAFDPVCAFIRVGYHLEDPLFHLESPRSERGRGRCPFDPSSSFISTLIGSELFAGLYSDYWSRDAAIFRSMGRLAHIRTEHDDERLLKEPKFVGSYMIPDNEDRDDNKVYFFFTEKALEAENNAHAIYTRVGRLCVNDVGGQRILVNKWSTFLKARLVCSVPGMNGIDTYFDELEDVFLLPTRDHKNPVIFGLFNTTSNIFRGHAICVYHMSSIRAAFNGPYAHKEGPEYHWSVYEGKVPYPRPGSCASKVNGGRYGTTKDYPDDAIRFARSHPLMYQAIKPAHKKPILVKTDGKYNLKQIAVDRVEAEDGQYDVLFIGTDNGIVLKVITIYNQEMESMEEVILEELQIFKDPVPIISMEISSKRQQLYIGSASAVAQVRFHHCDMYGSACADCCLARDPYCAWDGISCSRYYPTGTHAKRRFRRQDVRHGNAAQQCFGQQFVGDALDKTEEHLAYGIENNSTLLECTPRSLQAKVIWFVQKGRETRKEEVKTDDRVVKMDLGLLFLRLHKSDAGTYFCQTVEHSFVHTVRKITLEVVEEEKVEDMFNKDDEEDRHHRMPCPAQSSISQGAKPWYKEFLQLIGYSNFQRVEEYCEKVWCTDRKRKKLKMSPSKWKYANPQEKKLRSKPEHYRLPRHTLDS
modifications: full-length dimer
notes: dimer of full-length p87-Sema3E purified from medium of transfected COS-7 cells
For B3, the “stimulatory effect on neurite outgrowth” value [2] was 28-35% and the “cell-motility-stimulating activity of purified Sema3E isoform fractions” value [1] was “failes to stimulate motility”.

From patent publication US20070010433A1, “Use of compounds capable of inhibiting the proteolytic processing of semaphorins for prevention, treatment, diagnosis and prognosis of an invasive disease” (SEMA APS, priority 2002, published 2007)
